According to publication PMC9057599:

Target: histone H4 N-terminus, 1-30 (UniProt P62805)
Assay: biotin-peptide pulldown, blot
Details: reference: wild type ZMYND8; sites S486,S490

## ZMYND8 (from UniProt Q9ULU4) 2SA (S486A/S490A)
  binding against the reference: stronger
